Results taken from the supplement of paper PMC7125110.
± gives the standard error. Fewer inactive variants are shown than the library holds.

B1: glmS ribozyme (parent)
chain: AUAAAAGCGCCAGAACUACAGAAAUGUAGUUGACGAGGAGGAGGUUUAUCGAAUUUUCGGCGGAUGCCUCCAAA

What was measured:
Details in all cases: with glucosamine-6-phosphate
glucosamine-6-phosphate [1] = variants of: B1; assay: self-cleavage kobs at 40 uM GlcN6P; higher = faster cleavage; RNA array
Procedure, shortened: (§1)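 Glucosamine-6-phosphate (40 μM to 10 mM) in HEPES/KCl/Mg(OAc)2 buffer was flowed over sequenced MiSeq chips, and tiles were imaged over ~14 h. Barcoded ribozyme variants there had been transcribed in situ by E. coli RNA polymerase and were tracked through a hybridised Cy3 probe at 37 °C. One- or two-exponential decay fits to per-tile medians, normalised to baseline and to non-cleaving reference variants, gave kobs. kcat and KM came from weighted Michaelis–Menten fits across concentrations.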

glucosamine-6-phosphate [2] = variants of: B1; assay: self-cleavage kobs at 160 uM GlcN6P; higher = faster cleavage; RNA array
Procedure, shortened: as §1

glucosamine-6-phosphate [3] = variants of: B1; assay: self-cleavage kobs at 640 uM GlcN6P; higher = faster cleavage; RNA array
Procedure, shortened: as §1

glucosamine-6-phosphate [4] = variants of: B1; assay: self-cleavage kobs at 2500 uM GlcN6P; higher = faster cleavage; RNA array
Procedure, shortened: as §1

glucosamine-6-phosphate [5] = variants of: B1; assay: self-cleavage kobs at 10000 uM GlcN6P; higher = faster cleavage; RNA array
Procedure, shortened: as §1

| Variant | self-cleavage kobs at 40 uM GlcN6P (glucosamine-6-phosphate [1]) | self-cleavage kobs at 160 uM GlcN6P (glucosamine-6-phosphate [2]) | self-cleavage kobs at 640 uM GlcN6P (glucosamine-6-phosphate [3]) | self-cleavage kobs at 2500 uM GlcN6P (glucosamine-6-phosphate [4]) | self-cleavage kobs at 10000 uM GlcN6P (glucosamine-6-phosphate [5]) |
| --- | --- | --- | --- | --- | --- |
| AUAAAAGCGCCAGAACUACAGAAAUGUAGUUGACGAGGAAGAGGUUUAUCGAAUUUUCGGCGGAUGCAUCCAAA | < 1e-05 s⁻¹ | < 1e-05 s⁻¹ | < 1e-05 s⁻¹ | < 1e-05 s⁻¹ | < 1e-05 s⁻¹ |
| AUAAAAGCGCCAGAACUACAGAAAUGUAGUUGACGAGGUGGAGGUUUAUCGAAUUUUCGCCGGAUGCCUCCAAA | < 1e-05 s⁻¹ | < 1e-05 s⁻¹ |  | < 1e-05 s⁻¹ | < 1e-05 s⁻¹ |
| AUAAAAGCGCCAGAACUACAGAAAUGUAGUUGACGAGGUGGAGGUUUAUCGAAUUUUCGUCGGAUGCCUCCAAA | < 1e-05 s⁻¹ | < 1e-05 s⁻¹ | < 1e-05 s⁻¹ |  | < 1e-05 s⁻¹ |
| AUAAAAGCGCCAGAACUACAGAAAUGUAGUUGACGAGGUGGGGGUUUAUCGAAUUUUCGGCGGAAGCCUCCAAA | 4.73e-05 ± 1.7e-05 s⁻¹ |  |  |  | 0.00165 ± 0.00027 s⁻¹ |
| AUAAAAGCGCCAGAACUACAGAAAUGUAGUUGACGAGGAAGAGGUUUAUCAAAUUUUCGGCGGAUGCCUCCAAA | < 1e-05 s⁻¹ | < 1e-05 s⁻¹ | < 1e-05 s⁻¹ | < 1e-05 s⁻¹ | < 1e-05 s⁻¹ |
| AUAAAAGCGCCAGAACUACAGAAAUGUAGUUGACGAGGAAGAGGUUUAUCGAAUUUUCGGCGCAUGCCUCCAAA | < 1e-05 s⁻¹ |  | < 1e-05 s⁻¹ |  |  |
| AUAAAAGCGCCAGAACUACAGAAAUGUAGUUGACGAGGGGGAGGUUUAUCGAAUUUUCGGCGGAUGCCUCGAAA | 0.000215 ± 2.7e-05 s⁻¹ | 0.000373 ± 6.9e-05 s⁻¹ | 0.000657 ± 8.3e-05 s⁻¹ | 0.00189 ± 0.00037 s⁻¹ | 0.00538 ± 0.0012 s⁻¹ |
| AUAAAAGCGCCAGAACUACAGAAAUGUAGUUGACGAGGUGGAGGUUUAUCGAAAUUUCGGCGGAUGCCUCCAAA | 0.000568 ± 6.6e-05 s⁻¹ |  | 0.00339 ± 0.00076 s⁻¹ |  |  |
| AUAAAAGCGCCAGAACUACAGAAAUGUAGUUGACGAGGAAGAGGUUUAUCGACUUUUCGGCUGAUGCCUCCAAA | < 1e-05 s⁻¹ |  |  |  | < 1e-05 s⁻¹ |
| AUAAAAGCGCCAGAACUACAGAAAUGUAGUUGACGAGGUCGAUGUUUAUCGAAUUUUCGGCGGAUGCCUCCAAA | < 1e-05 s⁻¹ |  |  |  | < 1e-05 s⁻¹ |
| AUAAAAGCGCCAGAACUACAGAAAUGUAGUUGACGAGGGGGAGGUUUAUCGAAUUUUCGGCGGAUGCCUUCAAA | 0.00118 ± 0.00015 s⁻¹ | 0.0014 ± 0.0004 s⁻¹ | 0.00828 ± 0.0017 s⁻¹ | 0.0127 ± 0.0053 s⁻¹ | 0.022 ± 0.0045 s⁻¹ |
| AUAAAAGCGCCAGAACUACAGAAAUGUAGUUGACGAGGUGGAGGUUUAUCGAAUCUUCGGCGGAUGCCUCCAAA | 0.000475 ± 4.6e-05 s⁻¹ | 0.00102 ± 0.00013 s⁻¹ | 0.00443 ± 0.00071 s⁻¹ | 0.00902 ± 0.002 s⁻¹ | 0.0244 ± 0.0038 s⁻¹ |
| AUAAAAGCGCCAGAACUACAGAAAUGUAGUUGACGAGGGGGAGGUUUAUCGAAUUCUCGGCGGAUGCCUCUAAA | 7.63e-05 ± 2.3e-05 s⁻¹ |  |  |  |  |
| AUAAAAGCGCCAGAACUACAGAAAUGUAGUUGACGAGGGGGAGGUUUACCGGAUUUUCGGCGUAUGCGUCCAAA | < 1e-05 s⁻¹ |  |  |  |  |
| AUAAAAGCGCCAGAACUACAGAAAUGUAGUUGACGAGGGGGAGGUUUAUCGAAUUUUCGGCGGAUGCCACCAAA | 8.49e-05 ± 1.6e-05 s⁻¹ | 9.95e-05 ± 2.2e-05 s⁻¹ | 0.000395 ± 6.6e-05 s⁻¹ | 0.000452 ± 0.00012 s⁻¹ | 0.000139 ± 2.2e-05 s⁻¹ |
| AUAAAAGCGCCAGAACUACAGAAAUGUAGUUGACGAGGGGGAGGUUUAUCUAAUUUUCGGCGGAUGCCUCCAAA | < 1e-05 s⁻¹ | < 1e-05 s⁻¹ | < 1e-05 s⁻¹ | < 1e-05 s⁻¹ | < 1e-05 s⁻¹ |
| AUAAAAGCGCCAGAACUACAGAAAUGUAGUUGACGAGGUGGAGGUUUAUCGAAUUUUCGGAGGAUGCCUCCAAA | < 1e-05 s⁻¹ | < 1e-05 s⁻¹ | < 1e-05 s⁻¹ | < 1e-05 s⁻¹ | < 1e-05 s⁻¹ |
| AUAAAAGCGCCAGAACUACAGAAAUGUAGUUGACGAGGUGGAAGUUUAUUGAAUUUUCGGCGGAUGCCUCCAAA | < 1e-05 s⁻¹ |  |  |  |  |
| AUAAAAGCGCCAGAACUACAGAAAUGUAGUUGACGAGGAAGAGGUUUAUCGAAGUUUCGGCGGAUGCCUCCAAA | 0.00036 ± 6.8e-05 s⁻¹ |  | 0.0015 ± 0.00038 s⁻¹ | 0.00184 ± 0.00065 s⁻¹ | 0.00643 ± 0.0015 s⁻¹ |
| AUAAAAGCGCCAGAACUACAGAAAUGUAGUUGACGAGGGGGAGGUUUAUCCAAUUUUCGGCCGAUGCCUCCAAA | < 1e-05 s⁻¹ |  |  |  | < 1e-05 s⁻¹ |
| AUAAAAGCGCCAGAACUACAGAAAUGUAGUUGACGAGGAAGAGGUUUAUCGAAUUUUCGGCGGAUGCCUCAAAA | 0.00036 ± 4.6e-05 s⁻¹ | 0.000678 ± 0.00011 s⁻¹ | 0.00251 ± 0.00036 s⁻¹ | 0.00849 ± 0.0017 s⁻¹ | 0.0185 ± 0.0049 s⁻¹ |
| AUAAAAGCGCCAGAACUACAGAAAUGUAGUUGACGAGGGGGAUUUUUAUCGAAUGUUCGGCGGAUGCCUCCAAA | < 1e-05 s⁻¹ |  | < 1e-05 s⁻¹ | < 1e-05 s⁻¹ | < 1e-05 s⁻¹ |
